“And” between values parts separate entries of the source, which are not always exact repeats. Equal values may be shown once.
B1: Outer membrane porin C, P06996 (parent)
chain: MKVKVLSLLVPALLVAGAANAAEVYNKDGNKLDLYGKVDGLHYFSDNKDVDGDQTYMRLGFKGETQVTDQLTGYGQWEYQIQGNSAENENNSWTRVAFAGLKFQDVGSFDYGRNYGVVYDVTSWTDVLPEFGGDTYGSDNFMQQRGNGFATYRNTDFFGLVDGLNFAVQYQGKNGNPSGEGFTSGVTNNGRDALRQNGDGVGGSITYDYEGFGIGGAISSSKRTDAQNTAAYIGNGDRAETYTGGLKYDANNIYLAAQYTQTYNATRVGSLGWANKAQNFEAVAQYQFDFGLRPSLAYLQSKGKNLGRGYDDEDILKYVDVGATYYFNKNMSTYVDYKINLLDDNQFTRDAGINTDNIVALGLVYQF

Variants of: B1
Details: Escherichia coli (strain K12), pH 7, Thermal, phosphate 50 mM, structure 2J1N, whole UniProt chain shown

| Variant | Tm (CD) [°C] | change of melting temperature, mutant - wild type (higher = more stable) (CD) | Tm (DSC) [°C] | change of melting temperature, mutant - wild type (higher = more stable) (DSC) [°C] | unfolding enthalpy (calorimetric) (DSC) [kcal/mol] |
| --- | --- | --- | --- | --- | --- |
| MKVKVLSLLVPALLVAGAANAAEVYNKDGNKLDLYGKVDGLHYFSDNKDVDGDQTYMRLGFKGETQVTDQLTGYGQWEYQIQGNSAENENNSWTCVAFAGLKFQDVGSFDYGRNYGVVYDVTSWTDVLPEFGGDTYGSDNFMQQRGNGFATYRNTDFFGLVDGLNFAVQYQGKNGNPSGEGFTSGVTNNGRDALRQNGDGVGGSITYDYEGFGIGGAISSSKRTDAQNTAAYIGNGDRAETYTGGLKYDANNIYLAAQYTQTYNATRVGSLGWANKAQNFEAVAQYQFDFGLRPSLAYLQSKGKNLGRGYDDEDILKYVDVGATYYFNKNMSTYVDYKINLLDDNQFTRDAGINTDNIVALGLVYQF [R95C] | 68.4 | -1.5 °C | 84.6 | -2.35 | 297 |
| MKVKVLSLLVPALLVAGAANAAEVYNKDGNKLDLYGKVDGLHYFSDNKDVDGDQTYMRLGFKGETQVTDQLTGYGQWEYQIQGNSAENENNSWTGVAFAGLKFQDVGSFDYGRNYGVVYDVTSWTDVLPEFGGDTYGSDNFMQQRGNGFATYRNTDFFGLVDGLNFAVQYQGKNGNPSGEGFTSGVTNNGRDALRQNGDGVGGSITYDYEGFGIGGAISSSKRTDAQNTAAYIGNGDRAETYTGGLKYDANNIYLAAQYTQTYNATRVGSLGWANKAQNFEAVAQYQFDFGLRPSLAYLQSKGKNLGRGYDDEDILKYVDVGATYYFNKNMSTYVDYKINLLDDNQFTRDAGINTDNIVALGLVYQF [R95G] | 68.1 | -1.8 °C | 80.8 | -6.19 | 326 |
| MKVKVLSLLVPALLVAGAANAAEVYNKDGNKLDLYGKVDGLHYFSDNKDVDGDQTYMHLGFKGETQVTDQLTGYGQWEYQIQGNSAENENNSWTRVAFAGLKFQDVGSFDYGRNYGVVYDVTSWTDVLPEFGGDTYGSDNFMQQRGNGFATYRNTDFFGLVDGLNFAVQYQGKNGNPSGEGFTSGVTNNGRDALRQNGDGVGGSITYDYEGFGIGGAISSSKRTDAQNTAAYIGNGDRAETYTGGLKYDANNIYLAAQYTQTYNATRVGSLGWANKAQNFEAVAQYQFDFGLRPSLAYLQSKGKNLGRGYDDEDILKYVDVGATYYFNKNMSTYVDYKINLLDDNQFTRDAGINTDNIVALGLVYQF [R58H] |  | -1.5 °C and -1.1 °C and -2 °C | 87.3 | 0.31 | 359 |
| MKVKVLSLLVPALLVAGAANAAEVYNKDGNKLDLYGKVDGLHYFSDNKDVDGDQTYMRLGFKGETQVTDQLTGYGQWEYQIQGNSAENENNSWTSVAFAGLKFQDVGSFDYGRNYGVVYDVTSWTDVLPEFGGDTYGSDNFMQQRGNGFATYRNTDFFGLVDGLNFAVQYQGKNGNPSGEGFTSGVTNNGRDALRQNGDGVGGSITYDYEGFGIGGAISSSKRTDAQNTAAYIGNGDRAETYTGGLKYDANNIYLAAQYTQTYNATRVGSLGWANKAQNFEAVAQYQFDFGLRPSLAYLQSKGKNLGRGYDDEDILKYVDVGATYYFNKNMSTYVDYKINLLDDNQFTRDAGINTDNIVALGLVYQF [R95S] |  | -1.8 °C and -6.8 °C | 81.7 | -5.26 | 299 |
| MKVKVLSLLVPALLVAGAANAAEVYNKDGNKLDLYGKVDGLHYFSDNKDVDGDQTYMRLGFKGETQVTDQLTGYGQWEYQIQGNSAENENNSWTAVAFAGLKFQDVGSFDYGRNYGVVYDVTSWTDVLPEFGGDTYGSDNFMQQRGNGFATYRNTDFFGLVDGLNFAVQYQGKNGNPSGEGFTSGVTNNGRDALRQNGDGVGGSITYDYEGFGIGGAISSSKRTDAQNTAAYIGNGDRAETYTGGLKYDANNIYLAAQYTQTYNATRVGSLGWANKAQNFEAVAQYQFDFGLRPSLAYLQSKGKNLGRGYDDEDILKYVDVGATYYFNKNMSTYVDYKINLLDDNQFTRDAGINTDNIVALGLVYQF [R95A] |  |  | 81.3 | -5.66 | 258 |
| MKVKVLSLLVPALLVAGAANAAEVYNKDGNKLDLYGKVDGLHYFSDNKDVDGDQTYMRLGFKGETQVTDQLTGYGQWEYQIQGNSAENENNSWTAVAFAGLKFQDVGSFDYGRNYGVVYDVTSWTGVLPEFGGDTYGSDNFMQQRGNGFATYRNTDFFGLVDGLNFAVQYQGKNGNPSGEGFTSGVTNNGRDALRQNGDGVGGSITYDYEGFGIGGAISSSKRTDAQNTAAYIGNGDRAETYTGGLKYDANNIYLAAQYTQTYNATRVGSLGWANKAQNFEAVAQYQFDFGLRPSLAYLQSKGKNLGRGYDDEDILKYVDVGATYYFNKNMSTYVDYKINLLDDNQFTRDAGINTDNIVALGLVYQF [R95A D126G] |  |  | 73.9 | -13 | 192 |
| MKVKVLSLLVPALLVAGAANAAEVYNKDGNKLDLYGKVDGLHYFSDNKDVDGDQTYMRLGFKGETQVTDQLTGYGQWEYQIQGNSAENENNSWTRVAFAGLKFQDVGSFDYGRNYGVVYDVTSWTGVLPEFGGDTYGSDNFMQQRGNGFATYRNTDFFGLVDGLNFAVQYQGKNGNPSGEGFTSGVTNNGRDALRQNGDGVGGSITYDYEGFGIGGAISSSKRTDAQNTAAYIGNGDRAETYTGGLKYDANNIYLAAQYTQTYNATRVGSLGWANKAQNFEAVAQYQFDFGLRPSLAYLQSKGKNLGRGYDDEDILKYVDVGATYYFNKNMSTYVDYKINLLDDNQFTRDAGINTDNIVALGLVYQF [D126G] |  |  | 81.5 | -5.44 | 304 |
